Data on one molecule can be found in US6362319B1, “Glial cell line-derived neurotrophic factor” (Amgen Inc., priority 1991, dated 2002).

For test [1], the system named is sympathetic neurons from chick embryo sympathetic chain ganglia. Put plainly: Neuronal survival assay (MTT), sympathetic chain ganglia. Type of test: cell-based. The procedure: Cultures of primary check embryo ciliary ganglia and sympathetic chain ganglia were prepared as previously described (Collins 1978 Develop. Biol. 65:50; Manthorpe et al. 1986 Develop. Brain Res. 25:191). Briefly, ciliary or sympathetic ganglia were removed from fertile, pathogen free chicken eggs that had been incubated for 8 and 10 days, respectively, at 38° C. in a humidified atmosphere. The ganglia were chemically dissociated by exposure first to Hands' Balanced Salt Solution without divalent cations, containing 10 mM HEPES buffer pH 7.2 for 10 min at 37° C., and then by exposure to a solution of 0.125% bactotrypsin 1:250 (Difco, Detroit, Mich.) in Hanks' Balanced Salt Solution modified as above for 12 min at 37° C. Trypsinization was stopped by addition of fetal calf serum to a final concentration of 10%.
After this treatment, ganglia were transferred to a solution consisting of Dulbecco's high glucose Modified Eagle Medium without bicarbonate containing 10% fetal calf serum and 10 mM HEPES, pH 7.2 and were mechanially dissociated by trituration approximately 10 times through a glass Pasteur pipet whose opening had been fire polished and constricted to a diameter such that it took 2 seconds to fill the pipet.
The dissociated ganglia were then plated in culture medium (Dulbecco's Modified Eagle Medium supplemented with 10% fetal calf serum, 4 mM glutamine, 60 mg/L penicillin-G, 25 mM HEPES, pH 7.2) in 100 mm diameter tissue culture dishes (40 dissociated ganglia per dish) for three hours. […] After three hours, the nonadherent nerve cells were collection by centrifugation, resuspended in culture medium, and plated in 50 μl per well onto half area 96 well microtiter tissue culture plates at a density of 1500 nerve cells per well. The microtiter wells had been previously exposed to a 1 mg/ml solution of poly-L-ornithine in 10 mM sodium borate, pH 8.4 overnight at 4° C., washed in distilled water and air dried.
Ten μl of a serial dilution of the sample to be assayed for neurotrophic activity was added to each well and the dishes were incubated for 20 hours at 37° C. in a humidified atmosphere containing 7.5% CO2. After 18 hours for ciliary and 40 hours for sympathetic ganglia, 15 μl per well of a 1.5 mg/ml solution of the tetrasolium dye MTT in Dulbecco's high glucose Modified Eagle Medium without bicarbonate containing 10 mM HEPES, pH 7.2, was added and the cultures placed in the 37° C. incubator for 4 hours. Then, 75 μl of a solution of 6.7 ml of 12 M HCl per liter of isopropanol was added and the contents of each well triturated 30 times to break open the cells and suspend the dye. The absorbance of 570 nm was determined relative to a 690 nm reference for each well using an automatic microtiter plate reader (Dynatech, Chantilly, Va.). The absorbance of wells which had not received any neurotrophic agent (negative controls) was substracted from the absorbance of sample-containing wells. The resulting absorbance is proportional to the number of living cells in each well, defined as those nerve cells capable of reducing the dye. The number of trophic units of neurotrophic activity was defined as the reciprocal of the dilution that gave 50% of maximal survival of nerve cells. Specific activity was determined by dividing the number of trophic units by the amount of protein present in the sample.

Test [2] relates to TH+ dopamine neurons in mesencephalic cultures. Put plainly: Tyrosine hydroxylase (TH) immunoreactivity in mesencephalic cultures. Type of test: cell-based, rat. Particulars: added at day of plating, examined eight days later. The procedure: FIGS. 20A-B depicts the ability of GDNF to stimulate dopamine uptake and tyrosine hydroxylase (TH) immunostaining in dopaminergic neurons. Cultures were established as described in Example 1B. […] B. […] Primary antibody binding was visualized using a Vectastain ABC kit (Vector Labs, Burlingame, Calif.).
Culture conditions: Dissociated mesencephalic cell cultures were prepared as previously described (Friedman and Mytilineou 1987 Neurosci. Lett. 79:65-72), with minor modifications. Briefly, rostral mesencephalic tegmentum from brains of Sprague-Dawley rat embryos, at the 16th day of gestation, were dissected under the microscope in sterile conditions, collected in Ca^2+- and Mg^2+-free Dulbecco's phosphate buffered saline (Gibco, Gaithersburg, Md.) and dissociated mechanically by mild trituration. The cells were plated in 100 μl per well onto 16-mm diameter tissue culture wells (Falcon, Lincoln Park, N.J., 24-well plate) containing 400 μl medium to give a density of 2.5-3.5×10^5 cells per well. The culture wells had been previously exposed to 0.1 mg/ml solution of poly L-ornithine in 10 mM sodium borate, pH 8.4, for 3 hours at 37° C., washed 3 times in milli-Q H2O and once in Earle's balanced salt solution (Gibco). […]

B1: glial cell line-derived neurotrophic factor (protein)
chain: SNMPEDYPDQFDDVMDFIQATIKRLKRSPDKQMAVLPRRERNRQAAAANPENSRGKGRRGQRGKNRGCVLTAIHLNVTDLGLGYETKEELIFRYCSGSCDAAETTYDKILKNLSRNRRLVTDKVGQACCRPIAF
notes: dopaminergic neurotrophic protein purified from serum-free conditioned medium of rat B49 glioblastoma cells; disulfide-bonded dimer
As to B1, the “bioactivity in sympathetic neuron survival bioassay” value in test [1] is given as “promotes the survival in culture of symphathetic nerve cells”. Besides, the “ED50 for sympathetic neuron survival” value in test [1] (chick embryo (E10) sympathetic ganglia) is “about 5 ng/ml”. In addition, the “number of TH+ neurons over controls without GDNF” value in test [2] was “tenfold higher”.
